Assays:
[1] = substrate: Nc1nc(N)c2ncn([C@@H]3O[C@H](CO)[C@@H](O)[C@@H]3O)c2n1; experiment: purified protein, by the assay type; conditions: other: substrate of ADA
[2] = substrate: [N-]=[N+]=N[C@H]1C[C@H](n2cnc3c(N)nc(N)nc32)O[C@@H]1CO; experiment: Deamination by adenosine deaminase (substrate kinetics); format: biochemical, beef; conditions: other: substrate of ADA
Source text: Several ddDAPR analogues were examined for their sus­ceptibility to deamination by beef intestine adenosine de­aminase (ADA).

B1: beef intestine adenosine deaminase (ADA) (Bos taurus) (protein)
chain: MAQTPAFNKPKVELHVHLDGAIKPETILYYGRKRGIALPADTPEELQNIIGMDKPLSLPEFLAKFDYYMPAIAGCREAVKRIAYEFVEMKAKDGVVYVEVRYSPHLLANSKVEPIPWNQAEGDLTPDEVVSLVNQGLQEGERDFGVKVRSILCCMRHQPSWSSEVVELCKKYREQTVVAIDLAGDETIEGSSLFPGHVKAYAEAVKSGVHRTVHAGEVGSANVVKEAVDTLKTERLGHGYHTLEDATLYNRLRQENMHFEVCPWSSYLTGAWKPDTEHPVVRFKNDQVNYSLNTDDPLIFKSTLDTDYQMTKNEMGFTEEEFKRLNINAAKSSFLPEDEKKELLDLLYKAYGMPSPASAEQCL
notes: Kinetic properties of beef intestine adenosine deaminase; from tissue; host or cells: beef intestine
**Q.** What does the source list for B1?
**A.** Km [1]: 83 µM; Vmax [1]: 5.9 µmole/mg protein/min; Km [2]: 11 µM; Vmax [2]: 40 µmole/mg protein/min
